In this series the test system is T1, G3-6, Ac-cyclo(4,11)-EWWZIKEIQRXRRA-NH2.
T1 sequence: EWWXIKEIQRXRRA

On to “recombinant human APC/C (Strep-tagged APC4), expressed in SF9 cells”, for which the “in vitro APC/C ubiquitination assay with different E2 enzymes (UBE2C, UBE2D, UBE2S), Ub-cyclin B1 substrate, 100 µM, 40 min” value is “The lead molecule G3-6 (SEQ. ID. NO. 33) inhibits APC/C in vitro independently on employed E2 enzymes”.

For the origin of these results see US20230391828.
